# T1: mouse Ang2 (construct not stated) (mouse, UniProt O35608 19-496, limits assumed)
# T1 construct: also called mAng2
# T1 sequence (looked up): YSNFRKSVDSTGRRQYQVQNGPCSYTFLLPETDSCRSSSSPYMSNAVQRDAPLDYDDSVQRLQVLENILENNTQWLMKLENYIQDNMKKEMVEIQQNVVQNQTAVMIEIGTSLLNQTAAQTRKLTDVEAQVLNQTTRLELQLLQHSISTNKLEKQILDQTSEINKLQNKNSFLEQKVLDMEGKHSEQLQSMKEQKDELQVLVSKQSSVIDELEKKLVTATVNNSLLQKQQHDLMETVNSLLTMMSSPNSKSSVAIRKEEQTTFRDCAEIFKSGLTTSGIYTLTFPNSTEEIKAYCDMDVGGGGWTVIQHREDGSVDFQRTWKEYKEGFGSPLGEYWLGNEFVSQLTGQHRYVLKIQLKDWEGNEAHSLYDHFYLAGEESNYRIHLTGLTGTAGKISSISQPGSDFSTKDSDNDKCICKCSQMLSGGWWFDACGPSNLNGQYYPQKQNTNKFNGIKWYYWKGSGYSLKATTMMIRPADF
# T2: Ang2 immobilized on a biosensor (Octet off-rate screening) (Homo sapiens (Human), UniProt O15123 19-496)
# T2 construct: also called Ang2 antigen; not shown: It is a His tag if hAng2-his (R&D 623-AN/CF) was used, or an Fc if hAng2-Fc (PharmAbcine) was used
# T2 sequence: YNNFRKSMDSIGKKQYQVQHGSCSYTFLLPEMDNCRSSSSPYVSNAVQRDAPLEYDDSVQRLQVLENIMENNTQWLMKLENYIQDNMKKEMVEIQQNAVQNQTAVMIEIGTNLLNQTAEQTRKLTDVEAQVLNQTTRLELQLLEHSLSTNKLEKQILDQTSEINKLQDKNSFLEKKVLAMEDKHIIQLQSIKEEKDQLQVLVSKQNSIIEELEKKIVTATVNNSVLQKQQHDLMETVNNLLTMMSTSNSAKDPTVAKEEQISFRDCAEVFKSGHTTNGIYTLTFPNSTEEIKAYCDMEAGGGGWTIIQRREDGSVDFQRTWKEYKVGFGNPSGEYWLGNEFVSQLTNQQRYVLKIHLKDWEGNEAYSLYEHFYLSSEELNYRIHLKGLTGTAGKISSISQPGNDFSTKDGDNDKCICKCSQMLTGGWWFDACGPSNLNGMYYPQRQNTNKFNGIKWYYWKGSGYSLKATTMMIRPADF
# T3: mAng1-Fc (PharmAbcine) (mouse, UniProt O08538 20-498, limits assumed)
# T3 construct: In-house (PharmAbcine) Fc fusion; not shown: Fc part
# T3 sequence (looked up): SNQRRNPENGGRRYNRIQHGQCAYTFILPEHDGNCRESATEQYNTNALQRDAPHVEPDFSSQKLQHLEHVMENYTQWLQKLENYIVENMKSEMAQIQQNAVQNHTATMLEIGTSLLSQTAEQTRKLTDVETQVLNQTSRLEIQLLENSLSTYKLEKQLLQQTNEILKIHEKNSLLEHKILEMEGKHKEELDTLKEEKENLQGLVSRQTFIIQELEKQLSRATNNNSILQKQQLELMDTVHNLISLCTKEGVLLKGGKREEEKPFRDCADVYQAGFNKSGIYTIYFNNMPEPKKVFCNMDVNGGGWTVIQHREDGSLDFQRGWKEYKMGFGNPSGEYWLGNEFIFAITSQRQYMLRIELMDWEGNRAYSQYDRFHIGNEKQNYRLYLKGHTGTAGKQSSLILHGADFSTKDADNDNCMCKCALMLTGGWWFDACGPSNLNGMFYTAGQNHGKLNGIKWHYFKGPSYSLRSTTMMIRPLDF
# B1: No. 3 monoclonal scFv phage (scFv, V domains shown, not shown: large carriers)
# VH: QMQLVQSGGGLVQPGRSLKLSCAASGFSFDDYAMHWVRQAPGKGLEWVATIKDDGSQTYYVDSVKGRFTISRDNAKSSLFLQMNSLRAEDTAVYYCTTEGLMNGLHFDMWGQGTMVTVSS
# VL: LVLTQPPSVSGAPGQGVTISCTGSSSNIGAGYDVHWYQQFPGTAPKLLISGNNNRPSGLPDRFSGSKSGTSASLAITGLQAEDEADYYCQSYDSRLGVVFGGGTKLTVLG
# modifications: scFv linker; phage coat protein fusion
# B2: No. 3 candidate antibody expressed in the form of scFv (scFv, V domains shown)
# VH: QMQLVQSGGGLVQPGRSLKLSCAASGFSFDDYAMHWVRQAPGKGLEWVATIKDDGSQTYYVDSVKGRFTISRDNAKSSLFLQMNSLRAEDTAVYYCTTEGLMNGLHFDMWGQGTMVTVSS
# VL: LVLTQPPSVSGAPGQGVTISCTGSSSNIGAGYDVHWYQQFPGTAPKLLISGNNNRPSGLPDRFSGSKSGTSASLAITGLQAEDEADYYCQSYDSRLGVVFGGGTKLTVLG
# B3: No. 41 monoclonal scFv phage (scFv)
# chain: QVQLVESGGGLVQPGGSLRLSCEASGFAFGRYEMNWVRQAPGKGLEWIAYIDTGGGAKVYADSVKGRFTISRDDSKNSLYLQMNSLRAEDTAVYYCTTEGLMNGLHFDMWGQGTMITVSSDIQMTQSPSTLSASVGDRVAITCRASQAISTWLAWYQQKPGKAPKLLIYTASTLESGVPSRFSGSGSGTDFTLTINSLQPDDFATYYCQQLNSYPYTFGGGTKVEIKR
# B4: No. 4 candidate antibody expressed in the form of scFv (scFv, V domains shown)
# VH: QVQLVESGAEVKRPGESLRISCKTSGYSFTSYWIHWVRQMPGKELEWMGSIYPGNSDTRYSPSFQGHVTISADSSSSTAYLQWSSLKASDTAMYYCTTEGLMNGLHFDMWGQGTMVTVSS
# VL: DIVMTQTPLSLPVTPGEPASISCRSSQSLLHSLGDNYLDWYLQKPGQSPQLLIYLGSKRAAGVPDRFSGSGSGTDFTLKISRVEAEDVGVYYCMQSLQTPPYTFGQGTKLEIKR
# B5: No. 4 monoclonal scFv phage (scFv)
# chain: QVQLVESGAEVKRPGESLRISCKTSGYSFTSYWIHWVRQMPGKELEWMGSIYPGNSDTRYSPSFQGHVTISADSSSSTAYLQWSSLKASDTAMYYCTTEGLMNGLHFDMWGQGTMVTVSSDIVMTQTPLSLPVTPGEPASISCRSSQSLLHSLGDNYLDWYLQKPGQSPQLLIYLGSKRAAGVPDRFSGSGSGTDFTLKISRVEAEDVGVYYCMQSLQTPPYTFGQGTKLEIKR
# B6: No. 46 monoclonal scFv phage (scFv)
# chain: QVQLVESGGGLVQPGRSLRLSCAASGFTFDDCAMHWVRQAPGKGLEWVSGISGNSKNVAYADSVKGRFSISRDDAKNSLYLQMNSLRAEDTAVYYCARDPAYSQFDYWGQGTLITVSSQSALTQPPSLSATPGQRVTISCSGSSSNVGGYPVNWYQQVPGAAPKLLMYTDYKRPSGVPDRFFGSKSGTSASLAISGLQSEDEADYYCATWDDNLNGYVFGTGTKVTVLG
# B7: No. 41 monoclonal scFv phage (scFv, V domains shown, not shown: large carriers)
# VH: QVQLVESGGGLVQPGGSLRLSCEASGFAFGRYEMNWVRQAPGKGLEWIAYIDTGGGAKVYADSVKGRFTISRDDSKNSLYLQMNSLRAEDTAVYYCTTEGLMNGLHFDMWGQGTMITVSS
# VL: DIQMTQSPSTLSASVGDRVAITCRASQAISTWLAWYQQKPGKAPKLLIYTASTLESGVPSRFSGSGSGTDFTLTINSLQPDDFATYYCQQLNSYPYTFGGGTKVEIKR
# modifications: scFv linker; phage coat protein fusion
# B8: No. 41 candidate antibody expressed in the form of scFv (scFv, V domains shown)
# VH: QVQLVESGGGLVQPGGSLRLSCEASGFAFGRYEMNWVRQAPGKGLEWIAYIDTGGGAKVYADSVKGRFTISRDDSKNSLYLQMNSLRAEDTAVYYCTTEGLMNGLHFDMWGQGTMITVSS
# VL: DIQMTQSPSTLSASVGDRVAITCRASQAISTWLAWYQQKPGKAPKLLIYTASTLESGVPSRFSGSGSGTDFTLTINSLQPDDFATYYCQQLNSYPYTFGGGTKVEIKR
# B9: No. 8 monoclonal scFv phage (scFv)
# chain: QVQLVESGGGLVKPGGSLRLSCAASGFTFSSYSMNWVRQAPGKGLEWVSSISASDGATYYADSVRGRFTISRDNSRSTLYLQMNSLRAEDTAVYYCAKILAGYSGPMGGMDVWGQGTTVTVSSDIQMTQSPSSLSASVGDRVTITCRASRDISNYLAWYQQKPGKAPKSLIYGASNLQSGVSSQFSGSGSGTDFTLTINSLQPEDSATYYCQQYYSYPLTFGGGTKVDIKR
# B10: No. 8 candidate antibody expressed in the form of scFv (scFv)
# chain: QVQLVESGGGLVKPGGSLRLSCAASGFTFSSYSMNWVRQAPGKGLEWVSSISASDGATYYADSVRGRFTISRDNSRSTLYLQMNSLRAEDTAVYYCAKILAGYSGPMGGMDVWGQGTTVTVSSDIQMTQSPSSLSASVGDRVTITCRASRDISNYLAWYQQKPGKAPKSLIYGASNLQSGVSSQFSGSGSGTDFTLTINSLQPEDSATYYCQQYYSYPLTFGGGTKVDIKR
# B11: No. O4 scFv, optimized anti-Ang2 scFv antibody expressed in E. coli (pET-22b), refolded and purified (scFv, part only; not given: scFv linker and His tag, not shown: small tags and cut ends)
# scFv, part: QVQLVESGGGLVKPGGSLRLSCAASGFTFSSYSMNWVRQAPGKGLEWVSSISASDGATYYADSVRGRFTISRDNSRSTLYLQMNSLRAEDTAVYYCAKTLAGYSGPMGGMDVWGQGTTVTVSSDIQMTQSPSSLSASVGDRVTITCRASRDISNYLAWYQQKPGKAPKSLIYGASNLQSGVSSQFSGSGSGTDFTLTINSLQPEDSATYYCQQYYSYPLTFGGGTKVDIKR
# B12: No. 46 monoclonal scFv phage (scFv, V domains shown, not shown: large carriers)
# VH: QVQLVESGGGLVQPGRSLRLSCAASGFTFDDCAMHWVRQAPGKGLEWVSGISGNSKNVAYADSVKGRFSISRDDAKNSLYLQMNSLRAEDTAVYYCARDPAYSQFDYWGQGTLITVSS
# VL: QSALTQPPSLSATPGQRVTISCSGSSSNVGGYPVNWYQQVPGAAPKLLMYTDYKRPSGVPDRFFGSKSGTSASLAISGLQSEDEADYYCATWDDNLNGYVFGTGTKVTVLG
# modifications: scFv linker; phage coat protein fusion
# B13: No. 46 candidate antibody expressed in the form of scFv (scFv, V domains shown)
# VH: QVQLVESGGGLVQPGRSLRLSCAASGFTFDDCAMHWVRQAPGKGLEWVSGISGNSKNVAYADSVKGRFSISRDDAKNSLYLQMNSLRAEDTAVYYCARDPAYSQFDYWGQGTLITVSS
# VL: QSALTQPPSLSATPGQRVTISCSGSSSNVGGYPVNWYQQVPGAAPKLLMYTDYKRPSGVPDRFFGSKSGTSASLAISGLQSEDEADYYCATWDDNLNGYVFGTGTKVTVLG
# What was measured:
# [1] = target: T1, mouse Ang2 (construct not stated); test: competition ELISA: antibody preincubated with mAng2, binding to coated mouse Tie2-Fc
# [2] = target: T1, mouse Ang2 (construct not stated); test: SPR Biacore T200, antibody captured on protein A chip, Ang2 as analyte, 1:1 model
# Experimental: To analyze the binding affinity of the selected anti-Ang2 antibodies, affinity analysis for human Ang2 and mouse Ang2 was performed using BIACORE® T200 (GE Healthcare). A protein A sensor chip was used, and an experiment was conducted in accordance with the manufacturer's manual. Detailed analysis conditions are as follows. 2000 response units (RU) of protein A were immobilized, 25 RU of anti-Ang2 antibody candidates were used for binding, and various concentrations of human Ang2 and mouse Ang2 were allowed to bind. The starting concentrations for analysis are 100 nM and 150 nM, respectively. The analysis proceeded at a flow rate of 30 μl/min, the binding and dissociation time of human Ang2 was measured as 300 seconds and 2000 seconds, respectively, and the binding and dissociation time of mouse Ang2 was analyzed as 300 seconds and 1000 seconds, respectively. Analysis was performed using a 1:1 binding model as an analytical model.
# [3] = target: hAng2-Fc (PharmAbcine) (human) (UniProt O15123); test: phage ELISA, antigen coated at 1 µg/ml, anti-M13-HRP
# [4] = target: T2, Ang2 immobilized on a biosensor (Octet …); test: Octet (BLI), Ang2 immobilized on biosensor, scFv in solution
# mAng1-Fc (PharmAbcine) = target: T3, mAng1-Fc (PharmAbcine); test: phage ELISA, antigen coated at 1 µg/ml, anti-M13-HRP
# [5] = target: human Ang2 (construct not stated) (human) (UniProt O15123); test: Octet (BLI), scFv immobilized on biosensor, human Ang2 in solution
molecule,measurement,setting,value
nesvacumab (antibody),IC50,[1],10.4 nM
same,Kd,[2],0.262 nM
same,koff,[2],5.51e-05 s⁻¹
same,kon,[2],210000 M⁻¹ s⁻¹
B1,OD,[3],1.9 OD
B2,koff,[4],0.000642 s⁻¹
B3,OD,mAng1-Fc (PharmAbcine),0.111 OD
B4,koff,[4],0.000212 s⁻¹
B5,OD,[3],0.835 OD
same,OD,mAng1-Fc (PharmAbcine),0.093 OD
B6,OD,mAng1-Fc (PharmAbcine),0.061 OD
B7,OD,[3],0.825 OD
B8,koff,[4],1.08e-05 s⁻¹
B9,OD,[3],1.36 OD
same,OD,mAng1-Fc (PharmAbcine),0.199 OD
B10,koff,[4],< 1e-07 s⁻¹
B11,Kd,[5],0.28 nM
same,koff,[5],2.54e-05 s⁻¹
same,kon,[5],94000 M⁻¹ s⁻¹
B12,OD,[3],1.19 OD
B13,koff,[4],6.14e-05 s⁻¹

# Source: US20220204603A1 (PHARMABCINE, published 2022)
